Sequences and labels used below:
T1: Rad9-pY (SMILES …)
T1 peptide: Biotin-SGSSLEV[pY]EADATFYAKK-NH2

T2: Plk1-pT (SMILES …)
T2 peptide: Biotin-SGSAGPMQS[pT]PLNGAKK-NH2

T3: Rad9-pS (SMILES …)
T3 peptide: Biotin-SGSSLEV[pS]EADATFYAKK-NH2

T4: Rad9-pT peptide with SGS linker (SGS-SLEVpTEADATFYAKK) (yeast, SMILES …)
T4 construct: also called cognate pT peptide; Rad-pT
T4 peptide: Biotin-SGSSLEV[pT]EADATFYAKK-NH2

T5: WT FHA1 domain, GST fusion (Saccharomyces cerevisiae, UniProt P22216 1-170)
T5 construct: Expressed in the bacterial cytoplasm; cell lysate used in the ELISA; The order GST then FHA1 follows the pGEX-2T vector; also called GST fusion of the WT FHA1 domain; FHA1-GST fusion protein; not shown: Glutathione S-transferase (GST) of the pGEX-2T vector (GE Healthcare)
T5 sequence: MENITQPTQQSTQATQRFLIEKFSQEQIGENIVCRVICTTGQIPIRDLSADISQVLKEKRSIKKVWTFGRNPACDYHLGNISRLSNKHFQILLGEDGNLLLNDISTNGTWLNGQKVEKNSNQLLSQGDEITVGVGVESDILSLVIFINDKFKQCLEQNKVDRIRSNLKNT

T6: WT FHA1 domain of S. cerevisiae Rad53, phage-displayed (protein III fusion on bacteriophage M13) (Saccharomyces cerevisiae; bacteriophage …, UniProt P22216 1-170)
T6 construct: not shown: minor coat protein III (pIII, gene III product) of bacteriophage M13
T6 sequence: T5 sequence

B1: D2 variant of the FHA1 domain, phage-displayed (protein III fusion) (designed binder, not shown: small tags and cut ends)
chain: T5 sequence with C34F, C38S, C154S
notes: Selected from a mutagenic library built on the 3C-3S template; one added mutation S34F; also called position 34 F variant
B2: D2 FHA1 variant with W at position 34, phage-displayed (designed binder)
chain: T5 sequence with C34W, C38S, C154S
notes: Made from D2 by Kunkel mutagenesis at position 34; also called S34W; not shown: N-terminal Flag peptide, cloning-site residues and M13 protein III (display carrier)
B3: BRCT-pS (peptide)
peptide: Biotin-SGSAYDI[pS]QVFPFAKKK-NH2
SMILES: CC[C@H](C)[C@H](NC(=O)[C@H](CC(=O)O)NC(=O)[C@H](Cc1ccc(O)cc1)NC(=O)[C@H](C)NC(=O)[C@H](CO)NC(=O)CNC(=O)[C@H](CO)NC(=O)CCCC[C@@H]1SC[C@@H]2NC(=O)N[C@@H]21)C(=O)N[C@@H](COP(=O)(O)O)C(=O)N[C@@H](CCC(N)=O)C(=O)N[C@H](C(=O)N[C@@H](Cc1ccccc1)C(=O)N1CCC[C@H]1C(=O)N[C@@H](Cc1ccccc1)C(=O)N[C@@H](C)C(=O)N[C@@H](CCCCN)C(=O)N[C@@H](CCCCN)C(=O)N[C@@H](CCCCN)C(N)=O)C(C)C
notes: also called Biotin-BRCT-pS

The target in experiment [1] is Rad9-pT peptide with SGS linker (SGS-SLEVp…) (yeast). The experiment can be described thus: FTS assay, 1 µM protein, 250 µM pT peptide.
Experiment [2] has the same target. The experiment can be described thus: FTS assay, 4 µM protein, 50 µM pT peptide.
Experiment [3] has the same target. The experiment can be described thus: FTS assay, 4 µM protein, 250 µM pT peptide.
Experiment [4] has as its target Rad9 pT peptide used for ITC (SLEVp…) (yeast). The experiment can be described thus: ITC, pT peptide injected into 35 µM FHA1 domain, three repeats. In general terms: ITC needs no label: the signal is the heat of the interaction.
For experiment [5] the target is unchanged. The experiment can be described thus: ITC.
The target of experiment [6] is Rad9-pT peptide with SGS linker (SGS-SLEVp…) (yeast). The experiment can be described thus: FTS assay, 1 µM protein, 50 µM pT peptide.
The experiment “BRCT-pS” has as its target B3. The experiment can be described thus: phage ELISA; biotinylated peptide on Neutravidin, A405. The method, then:
FIG. 9A is a photograph of 96-well plates containing phage supernatants from 96 individual clones, which were isolated after three rounds of selection, heated (50° C.), cooled, and added to microtiter plate wells coated with the phosphopeptide ligand. Binding of phage particles in the wells was monitored with an anti-M13 antibody conjugated to HRP. FIG. 9B is a graph showing the ratio of the ELISA signals for individual phage clones generated with wells contained with the target protein compared to a negative control protein (background).
Phage particles produced from 96 clones isolated after round #3, were heated at 50° C. for 3 hr and cooled to RT. The phage supernatants were then incubated with both the target peptide (500 ng/well) immobilized on NeutrAvidin (1 μg/well) coated plate wells and an unrelated target (background). Binding phage clones were detected using anti-M13 antibody conjugated to HRP (GE Healthcare). The green, colored product of the enzymatic reaction in the microtiter plate wells was measured at 405 nm using the FLUOstar OPTIMA plate reader (BMG Labtech). […] In some cases, the signal over background ratio ranged from 3 to 20 for clones (FIG. 9B).
In general terms: An ELISA detects its analyte on a solid surface through an enzyme-linked reagent.

The next experiment concerns the target T1, Rad9-pY. The experiment can be described thus: phage ELISA; biotinylated peptide on Neutravidin; anti-M13-HRP, A405 [a]. The text has this: (§1) Binding of phage particles was detected using anti-M13 antibody conjugated to HRP. FIG. 4(b) is a graph of the results of ELISA experiments of GST fusions of the WT FHA1 domain and three of its variants, 3C-3S, 4C-4S, and D2, that bound specifically to the cognate pT peptide (Rad9-pT; shown as solid histograms) immobilized on plastic microtiter plate wells via Neutravidin. Binding was detected using anti-GST antibody conjugated to HRP. The peptide sequences for Rad9-pT, Rad9-T, Rad9-pS, Rad9-pY, Plk1-pT and BRCT-pS are SGSSLEVp[…] (SEQ ID NO: 1), […] (SEQ ID NO: 2), SGSSLEVp[…] (SEQ ID NO: 3), SGSSLEVp[…] (SEQ ID NO: 4), […]p[…] (SEQ ID NO: 5) and SGSAYDIp[…] (SEQ ID NO: 6), respectively. The peptide sequence for the WT FHA1 domain from S. cerevisiae Rad53 protein kinase includes […] (SEQ ID NO:7), which includes residues 1-170 of S. cerevisiae Rad53 (SEQ ID NO:8) (Liao et al. (2000) J. Mol. Biol 304, 941-51; Durocher et al. (1999) Mol Cell 4). […] The β-strands are labeled from 1 to 11 in the WT FHA1 domain structure and the N- and C-termini are noted.

In a further experiment the target is T2, Plk1-pT. The description is as above.
Source text: as §1

The next experiment addresses T3, Rad9-pS. Described as above.
Source text: as §1

Experiment [7] deals with T4, Rad9-pT peptide with SGS linker …. The experiment can be described thus: phage ELISA, normalised to Flag. The source says:
Through Kunkel mutagenesis (Yaffe (2002) Nat Rev Mol Cell Bol 3, 177-86), the amino acid residue at position 34 in the β1 strand of the D2 FHA 1 domain was replaced (from the naturally-occurring V) one at a time with each of the other naturally occurring amino acids and binding to the immobilized Rad9-pT peptide was monitored by phage ELISA. Phage binding was detected using anti-M13 antibody conjugated to Horse Radish Peroxidase (HRP). […] All the variants display an N-terminal Flag peptide and the amount of phage particles used for each variant in this experiment has been normalized for this epitope.
To amplify the phage particles displaying the recombinant FHA1 variants, TG1 bacterial cells (5 mL; Stratagene) harboring the phagemid DNA were infected at mid-log (OD₆₀₀ₙₘ=0.5-0.6) with M13K07 helper phage (New England Biolabs) at a multiplicity of infection (MOI) of 20 for 1 h at 37° C. at 150 rpm. Infected cells were centrifuged, and the pellet was resuspended in fresh Luria Bertani medium (LB: 10 g Tryptone, 5 g Yeast extract, and 10 g NaCl per liter) supplemented with 50 μg/mL carbenicillin and 50 μg/ml kanamycin, and phage were amplified overnight at 30° C. at 250 rpm. All of the phage ELISA steps were performed at room temperature. […]

In experiment [8] the target is T5, WT FHA1 domain, GST fusion. The experiment can be described thus: ELISA with GST fusion (cell lysate); biotinylated peptide on Neutravidin; anti-GST-HRP, A405 [b].
For experiment [9], the target named is T6, WT FHA1 domain of S. cerevisiae Rad53, …. The experiment can be described thus: phage ELISA; biotinylated peptide on Neutravidin; anti-M13-HRP, A405 [a].
Source text: as §1

Where a chain is given by its changes, count along the chain named. Names may count otherwise. Square brackets hold non-standard residues; d marks the D form. * marks the point of attachment. Biotin = O=C1N[C@H]2[C@H](CS[C@H]2CCCCC(=O)*)N1; pY = N[C@@H](Cc1ccc(OP(=O)(O)O)cc1)C(=O)O; pT = C[C@@H](OP(=O)(O)O)[C@H](N)C(=O)O; pS = N[C@@H](COP(=O)(O)O)C(=O)O

A word on the Kd: it is the concentration at which binding is half-saturated. High values mean lower affinity, low ones higher affinity. On to “WT FHA1 domain, purified with C-terminal six-histidine tag (from UniProt P22216 1-170)”, for which the Tm shift in the presence of pT peptide stood at 3.8 ° C in experiment [1], 1.95 ° C in [2], 3.55 ° C in experiment [3] and 1.7 ° C in experiment [6]. The molecule further yielded an equilibrium dissociation constant (Kd) in [4] of 1 µM. In experiment [5], this molecule had a stoichiometry of 1.

Consider B1, for which the binding result in the experiment with BRCT-pS, in the experiment with Rad9-pY, with Plk1-pT and in the experiment with Rad9-pS was “no binding” in each case.

With B2, the binding result in [7] is recorded as “no binding”.

As to B3, the binding result in experiment [8] and in [9] was “no binding” throughout.

Values taken from patent publication US20130225434A1 (BOARD OF TRUSTEES OF THE UNIVERSITY OF ILLINOIS, published 2013).
